Laboratory results from publication PMC4102620 (Journal of molecular biology, 2014).

Target: yeast E1 (Uba1) (yeast, UniProt P22515 1-1024, biotin on the C-terminal biotin ligase acceptor peptide)
Test: fluorescent FL-UB-E1 band on non-reducing SDS-PAGE

- binding result: binds
B1: fluorescently labeled wild type ubiquitin (FL-UB) (natural protein)
chain: not shown
modifications: fluorescein (iodoacetamide) on the unique cysteine of the N-terminal tag
